{
  "source": "paper PMC9097876",
  "about": "(Science Immunology, 2022)",
  "details_in_all_cases": "both partners purified",
  "key": {"[1]": {"biological_target": "T1, SARS-CoV-2 spike receptor-binding domain (RBD), Alpha variant (SARS-CoV-2, Alpha variant (B.1.1.7), N501Y)", "T1 construct": "not shown: His tag, C-terminal, kept", "experiment": "BLI"}, "[2]": {"biological_target": "T2, SARS-CoV-2 spike receptor-binding domain (RBD), Delta variant (SARS-CoV-2, Delta variant (B.1.617.2), L452R | T478K)", "T2 construct": "not shown: His tag, C-terminal, kept", "experiment": "BLI"}, "[3]": {"biological_target": "T3, SARS-CoV-2 spike receptor-binding domain (RBD), Gamma variant (SARS-CoV-2, Gamma variant (P.1), E484K | N501Y)", "T3 construct": "not shown: His tag, C-terminal, kept", "experiment": "BLI"}, "[4]": {"biological_target": "SARS-CoV-2 spike hexapro, prefusion stabilized spike ectodomain trimer (SARS-CoV-2, Wuhan, UniProt P0DTC2, stabilised)", "experiment": "cryo-EM structure"}, "[5]": {"biological_target": "T4, SARS-CoV-2 spike receptor-binding domain (RBD), Alpha variant (SARS-CoV-2, Alpha variant (B.1.1.7), N501Y)", "T4 construct": "not shown: His tag, C-terminal, kept", "experiment": "BLI", "remark": "listed apart in the source"}, "[6]": {"biological_target": "T5, SARS-CoV-2 spike receptor-binding domain (RBD), Wuhan isolate (SARS-CoV-2, Wuhan, UniProt P0DTC2)", "T5 construct": "not shown: His tag, C-terminal, kept", "experiment": "BLI"}, "[7]": {"biological_target": "T6, SARS-CoV-2 spike receptor-binding domain (RBD), Delta variant (SARS-CoV-2, Delta variant (B.1.617.2), L452R | T478K)", "T6 construct": "not shown: His tag, C-terminal, kept", "experiment": "BLI", "remark": "listed apart in the source"}, "[8]": {"biological_target": "T7, SARS-CoV-2 spike receptor-binding domain (RBD), Gamma variant (SARS-CoV-2, Gamma (P.1), E484K | N501Y)", "T7 construct": "not shown: His tag, C-terminal, kept", "experiment": "BLI"}},
  "data": [
    {"binder": "G32Q4 Fab (Fab, V domains shown) VH: QVQLVESGGGVVQPGRSLRLSCAASGFTFSRYAMQWVRQAPGKGLEWVAVISYDGNNRYYADSVKGRFTISRDNSKNTLYLQMNSLRAEDTAVYYCARGPPGYYDSSGYYQTPEYFQHWGQGTLVTVSS VL: QSVLTQPPSVSGAPGQRVTISCTGSSSNIGVGYDVHWYQQFPGTVPKLLIYGNSNRPSGVPDRFSGSKSGTSASLAITGLQAEDEADYYCQSYDSSLSGVVFGGGTKLTVL", "note": "[G32Q4 Fab, listing 1 of 2 here]", "values": [
      {"measurement": "koff", "setting": "[1]", "value": 0.007, "unit": "s⁻¹"},
      {"measurement": "kon", "setting": "[1]", "value": 930000, "unit": "M⁻¹ s⁻¹"},
      {"measurement": "koff", "setting": "[2]", "value": 0.0062, "unit": "s⁻¹"},
      {"measurement": "kon", "setting": "[2]", "value": "1.2e+06", "unit": "M⁻¹ s⁻¹"},
      {"measurement": "koff", "setting": "[3]", "value": 0.0025, "unit": "s⁻¹"},
      {"measurement": "kon", "setting": "[3]", "value": "2e+06", "unit": "M⁻¹ s⁻¹"}
    ]},
    {"binder": "G32Q4 Fab (Fab, V domains shown) VH: QVQLVESGGGVVQPGRSLRLSCAASGFTFSRYAMQWVRQAPGKGLEWVAVISYDGNNRYYADSVKGRFTISRDNSKNTLYLQMNSLRAEDTAVYYCARGPPGYYDSSGYYQTPEYFQHWGQGTLVTVSS VL: QSVLTQPPSVSGAPGQRVTISCTGSSSNIGVGYDVHWYQQFPGTVPKLLIYGNSNRPSGVPDRFSGSKSGTSASLAITGLQAEDEADYYCQSYDSSLSGVVFGGGTKLTVL", "note": "[G32Q4 Fab, listing 2 of 2 here]", "values": [
      {"measurement": "binding result", "setting": "[4]", "value": "binds"},
      {"measurement": "Kd", "setting": "[5]", "value": 75, "unit": "nM"},
      {"measurement": "Kd", "setting": "[6]", "value": 57, "unit": "nM"},
      {"measurement": "Kd", "setting": "[7]", "value": 53, "unit": "nM"},
      {"measurement": "Kd", "setting": "[8]", "value": 13, "unit": "nM"}
    ]},
    {"binder": "C98C7 Fab (Fab, V domains shown) VH: EVQLVESGGGLVQPGGSLRLSCAASGITVSSNYMSWVRQAPGKGLEWVSVIYSGGSTFYADSVKGRFTISRDNSKNTLYLQMSSLRAEDTAVYYCARDLVVFGMDVWGQGTTVTVSS VL: EIVLTQSPGTLSLSPGETATLSCRASQSVGSSYLTWYQQKPGQAPRLLIYGASSRATGIPDRFSGSGSGTDFTLTISRLEPEDFAVYYCQHYGSSPTFGQGTKVEIK", "note": "[C98C7 Fab, listing 1 of 2 here]", "values": [
      {"measurement": "Kd", "setting": "[2]", "value": 3.5, "unit": "nM"},
      {"measurement": "koff", "setting": "[2]", "value": 0.00099, "unit": "s⁻¹"},
      {"measurement": "kon", "setting": "[2]", "value": 280000, "unit": "M⁻¹ s⁻¹"}
    ]},
    {"binder": "C98C7 Fab (Fab, V domains shown) VH: EVQLVESGGGLVQPGGSLRLSCAASGITVSSNYMSWVRQAPGKGLEWVSVIYSGGSTFYADSVKGRFTISRDNSKNTLYLQMSSLRAEDTAVYYCARDLVVFGMDVWGQGTTVTVSS VL: EIVLTQSPGTLSLSPGETATLSCRASQSVGSSYLTWYQQKPGQAPRLLIYGASSRATGIPDRFSGSGSGTDFTLTISRLEPEDFAVYYCQHYGSSPTFGQGTKVEIK", "note": "[C98C7 Fab, listing 2 of 2 here]", "values": [
      {"measurement": "binding result", "setting": "[4]", "value": "binds"},
      {"measurement": "Kd", "setting": "[5]", "value": 6, "unit": "nM"},
      {"measurement": "Kd", "setting": "[6]", "value": 3, "unit": "nM"},
      {"measurement": "Kd", "setting": "[7]", "value": 3, "unit": "nM"},
      {"measurement": "Kd", "setting": "[8]", "value": 1, "unit": "nM"}
    ]}
  ]
}
